Measured values published in article PMC6956818, “Activation of JNK and p38 MAPK Mediated by ZDHHC17 Drives Glioblastoma Multiforme Development and Malignant Progression” (Theranostics, 2020).

B1: Myc-tagged ZDHHC17 ANK (1-7) [human] / Flag-MAP2K4 [human] (parent complex)
chain 1: THIDDYSTWDIVKATQYGIYERCRELVEAGYDVRQPDKENVTLLHWAAINNRIDLVKYYISKGAIVDQLGGDLNSTPLHWATRQGHLSMVVQLMKYGADPSLIDGEGCSCIHLAAQFGHTSIVAYLIAKGQDVDMMDQNGMTPLMWAAYRTHSVDPTRLLLTFNVSVNLGDKYHKNTALHWAVLAGNTTVISLLLEAGANVDAQNIKGESALDLAKQRKNVWMINHLQEARQAKGYDN
chain 2: MAAPSPSGGGGSGGGSGSGTPGPVGSPAPGHPAVSSMQGKRKALKLNFANPPFKSTARFTLNPNPTGVQNPHIERLRTHSIESSGKLKISPEQHWDFTAEDLKDLGEIGRGAYGSVNKMVHKPSGQIMAVKRIRSTVDEKEQKQLLMDLDVVMRSSDCPYIVQFYGALFREGDCWICMELMSTSFDKFYKYVYSVLDDVIPEEILGKITLATVKALNHLKENLKIIHRDIKPSNILLDRSGNIKLCDFGISGQLVDSIAKTRDAGCRPYMAPERIDPSASRQGYDVRSDVWSLGITLYELATGRFPYPKWNSVFDQLTQVVKGDPPQLSNSEEREFSPSFINFVNLCLTKDESKRPKYKELLKHPFILMYEERAVEVACYVCKILDQMPATPSSPMYVD

Variants of: B1
Experiment: co-immunoprecipitation, quantified immunoblot; HEK293 cell lysates; parent: 1; read off a plot

| Variant | ratio to parent |
| --- | --- |
| chain 1 Y17G | ~0.33 |
| chain 1 Q84G | ~0.85 |
| chain 1 R83G, chain 1 R150G | ~0.75 |
| chain 1 R52G | ~0.35 |
| chain 1 D5G | ~0.75 |
| chain 1 W80G, chain 1 F117G | ~0.42 |
| chain 1 D4G | ~0.43 |
| chain 1 Y6G | ~0.35 |
